Results on 1 molecule are retold here after patent US11110115B2, “Nucleic acid molecule with anti-inflammatory and anti-coagulant and organ-protective properties” (APTAHEM AB, priority 2017, dated 2021).

This data set can be described thus: Ferric chloride induced arterial thrombosis model (clot weight and size). The settings on record: 60 min after FeCl3; SEQ ID NO:2 5, 20, 40 mg/kg i.v.; Rivaroxaban 10 mg/kg oral; Warfarin 0.5 mg/kg i.v. Type of data set: in vivo, Sprague-Dawley rats. As to the method: Animal handling was performed according to guidelines of the National Institute of Health (NIH) and the Association for Assessment and Accreditation of Laboratory Animal Care (AAALAC). A total of 36 Sprague-Dawley rats (Envigo RMS) were divided into six groups comprising of 6 animals per group (3 males and 3 females). […] Both were fed ad libitum a rodent diet. Animals had free access to autoclaved and acidified drinking water. Animals were housed under standard laboratory conditions, air conditioned and filtered with adequate fresh air supply. Animals were kept in a climate controlled environment.
SEQ ID NO:2 (Biospring) (100 mg) was dissolved in 5 ml saline to form a stock solution of 20 mg/ml. Vehicle (saline, Teva) as ready to use for i.v. administration. Rivaroxaban (Bayer, Pharamseed Ltd) dosing solution was diluted at 10 mg/kg (Group 2M). Warfarin (Ceriliant, Pharmaseed Ltd) was diluted at 0.5 mg/kg (Group 3M). […]
Male and Female rats were anaesthetized by intraperitoneal injection of ketamine/xylazine. […] The time needed for occlusion to occur was measured for up to 60 min, and occlusion time was assigned a value of 60 min for vessels that […].
Clot formation was followed for 60 minutes following application of FeCl3. […] The artery wall was cut longitudinally; clot was taken out, weighed and measured by caliper. […]

B1: SEQ ID NO:2: nucleic acid sequence of SEQ ID NO:1 in which each C and U is fluorinated to increase stability in plasma (nucleic acid)
chain: GGGAAUUCGAGCUCGGUACCAACAAUACGACUACACCAUCAAAAGUAUUAUCUUGCAUCGAAGGUUGGCACGUAGCAAGCUCUGCAGUCG
modifications: fluorinated C and U; (6)..(7) uracil is fluorinated; (8)..(8) cytosine is fluorinated; (12)..(12) cytosine is fluorinated; (13)..(13) uracil is fluorinated; (14)..(14) cytosine is fluorinated; (17)..(17) uracil is fluorinated; (19)..(20) cytosine is fluorinated; (23)..(23) cytosine is fluorinated; (26)..(26) uracil is fluorinated; (28)..(28) cytosine is fluorinated; (31)..(31) cytosine is fluorinated; (32)
Take B1: the “clot size compared to control group (Vehicle)” value is “reduction” and the “clot weight compared to control group (Vehicle)” value was “reduction”.
